Patent US20240092922A1 (EUCURE BEIJING BIOPHARMA, published 2024)

Experiments:
[1] = biological target: T1, monkey (Rhesus macaque) 4-1BB (r4-1BB) on transfected CHO cells (monkey (Rhesus macaque), UniProt Q07011 24-255 (human entry)); test: flow cytometry on transfected CHO cells;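 further: antibodies tested at 1 µg/ml on CHO cells for 30 min at 4 °C, binding detected with FITC- or PE-labeled anti-mouse IgG Fc secondary by flow cytometry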
T1 construct: also called rm4-1BB; CHO-r4-1BB
T1 chain: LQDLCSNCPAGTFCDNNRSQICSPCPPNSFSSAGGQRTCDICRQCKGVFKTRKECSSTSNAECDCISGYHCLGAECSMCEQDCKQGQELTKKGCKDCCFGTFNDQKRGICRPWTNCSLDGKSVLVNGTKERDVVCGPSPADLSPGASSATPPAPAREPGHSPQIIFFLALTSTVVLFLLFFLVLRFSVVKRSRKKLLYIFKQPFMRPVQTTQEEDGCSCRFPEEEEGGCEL
Procedure: (§1) 25 μl CHO cells were added to each well. 25 μl purified anti-h4-1BB antibodies (1 μg/ml) were added to each well and were incubated at 4° C. for 30 minutes.
(§2) After being washed with PBS (1200 rmp, 5 min) twice, 50 μl of FITC labeled anti-mouse IgG Fc antibody (anti-mIgG Fc-FITC) was added into each well at 1:100 dilution, followed by incubating at 4° C. for 30 minutes, and then PBS wash (1200 rmp, 5 min). In some cases, PE labeled anti-mouse IgG Fc antibody (anti-mIgG Fc-PE) was used to label the antibody instead, and was added into each tested well at 1:500 dilution. The signals for FITC and PE were determined by flow cytometry.

[2] = biological target: T2, chimeric (mouse and human) 4-1BB (c4-1BB) on transfected CHO cells (chimeric (mouse and human)); test: flow cytometry on transfected CHO cells;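 further: antibodies tested at 1 µg/ml on CHO cells for 30 min at 4 °C, binding detected with FITC- or PE-labeled anti-mouse IgG Fc secondary by flow cytometry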
T2 construct: also called chi4-1BB; CHO-c4-1BB
Procedure: as §1, §2

[3] = biological target: T3, mouse 4-1BB (m4-1BB) on transfected CHO cells (mouse, UniProt P20334 24-256); test: flow cytometry on CHO cells transfected with mouse 4-1BB
T3 construct: also called CHO-m4-1BB
Procedure: as §1, §2

[4] = biological target: T4, human 4-1BB (h4-1BB) on transiently transfected CHO cells (human, UniProt Q07011 24-255); test: flow cytometry, CHO cells transfected with human 4-1BB, antibody at 1 µg/ml
T4 construct: also called TNFRSF9; CD137

[5] = biological target: T4, human 4-1BB (h4-1BB) on transiently …; test: flow cytometry, CHO cells transfected with human 4-1BB, antibody at 10 µg/ml
[6] = biological target: T4, human 4-1BB (h4-1BB) on transiently …; test: flow cytometry, CHO cells transfected with human 4-1BB, antibody at 0.1 µg/ml
Procedure: (§3) 25 μl CHO cells transiently transfected with human 4-1BB were added to each well in a plate. The purified antibodies were titrated to final concentrations of 10, 1, 0.1, 0.01, 0.001 μg/ml. The titrated antibodies were added to each well at 4° C. and incubated for 30 minutes.
(§4) After being washed with phosphate-buffered saline (PBS) (1200 rpm, 5 minutes) twice, 50 μl of FITC labeled anti-mouse IgG Fc antibody (anti-mIgG Fc-FITC) at 1:100 dilution was added into each well, and incubated for 30 minutes at 4° C., followed by PBS wash (1200 rpm, 5 minutes). The signal for FITC was detected by flow cytometry.

[7] = biological target: T4, human 4-1BB (h4-1BB) on transiently …; test: flow cytometry, CHO cells transfected with human 4-1BB, antibody at 0.01 µg/ml
Procedure: as §3, §4

[8] = biological target: T5, Histidine-tagged human 4-1BB protein (h4-1BB-His) (human, UniProt Q07011 24-186); test: SPR (Biacore T200), antibody on Protein A chip, h4-1BB-His injected;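 further: dissociation phase followed for 300 s, Kd derived as koff divided by kon from the kinetic fit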
T5 construct: not shown: histidine tag

[9] = biological target: T4, human 4-1BB (h4-1BB) on transiently …; test: flow cytometry, CHO cells transfected with human 4-1BB, antibody at 0.001 µg/ml
Procedure: as §3, §4

Row | Binder | Kd [8] [nM] | koff [8] [s⁻¹] | kon [8] [M⁻¹ s⁻¹] | further results
1 | 29-6A5 (antibody, V domains shown, mouse antibody purified from ascites) VH: QVQLQQPGAELVRPGASVKLSCKASGYTFSSYWINWVKQRPGQGLEWIGNIYPSDSYTNYNQKFKDKATLTVDKSSSTAYMQLSSPTSDDSAVYYCTRTWEFYYDSVFDYWGQGTTLTVSS VL: DIKMTQSPSSMYASLGERVTITCKASQDINSYLSWFQQKPGKSPKTLIYRANRLVDGVPSRFSGSGSGQDYSLTISSLEYEDMGIYYCLQYDELPPTFGGGTKLEIK |  |  |  | binding result [1]: binds; binding result [2]: binds; binding result [3]: no binding (tested: 1 µg/ml); percentage of cells with FITC signal [4]: 73.4%; percentage of cells with FITC signal [5]: 80.5%; percentage of cells with FITC signal [6]: 70.8%; percentage of cells with FITC signal [7]: 47.4%
2 | 5F9-H3K4-IgG4 (antibody, V domains shown, humanized) VH: QVQLKESGPGLVKPSETLSITCTVSGFSLTTYDISWVRQPPGKGLEWLGVIWTGGGTNYNSSFMSRVTISKDNSKNQVSLKLSSVTAADTAIYYCERVDYWGQGTTLTVSS VL: DVVMTQSPLSLPVTLGDPASISCRSSQSLVHSNGNTYLHWYLQRPGQSPKLLIYKVSNRFSGVPDRFSGSGSGTAFTFKISRVEAEDVGVYYCSQNTHVPWTFGGGTKLEIK | 11.4 | 0.0027 | 236000 | 
3 | 56-2A6 (antibody, V domains shown, mouse antibody purified from ascites) VH: QIQLVQSGPELKKPGETVKISCKASGYTFTNYGMNWVKQAPGKGFKWMGWINTYTGEPTYADDFKGRFAFSLEISASTAYLQINNLKNEDTATYFCARRDYLGAMDYWGQGTSVTVSS VL: ENVLTQSPAIMSASPGEKVTMTCRASSSVSSSYLHWYQQKSGASPKLWIYSTSNLASGVPARFSGSGSGTSYSLTISSVEAEDAATYYCQQYSAYLYTFGGGTKLEIK |  |  |  | binding result [2]: binds; binding result [3]: no binding (tested: 1 µg/ml); percentage of cells with FITC signal [4]: 40.9%; percentage of cells with FITC signal [5]: 46.6%; percentage of cells with FITC signal [6]: 17.1%; percentage of cells with FITC signal [7]: 0.89%; percentage of cells with FITC signal [9]: 0.25%
4 | 6A5-H2K2-IgG2 (antibody, V domains shown, humanized) VH: QVQLVQSGAEVKKPGSSVKLSCKASGYTFSSYWINWVRQAPGQGLEWIGNIYPSDSYTNYNQKFKDRATLTVDKSTSTAYMELSSLRSEDTAVYYCTRTWEFYYDSVFDYWGQGTLVTVSS VL: DIQMTQSPSSLSASLGERVTITCKASQDINSYLSWYQQKPGKAPKTLIYRANRLVDGVPSRFSGSGSGQDFTLTISSLQPEDIATYYCLQYDELPPTFGGGTKVEIK | 0.28 | 0.000652 | 2.33e+06 | 
5 | 6A5-H1K1-IgG2 (antibody, V domains shown, humanized) VH: QVQLVQSGAEVKKPGSSVKLSCKASGYTFSSYWINWVRQAPGQGLEWMGNIYPSDSYTNYNQKFKDRVTLTVDKSTSTAYMELSSLRSEDTAVYYCTRTWEFYYDSVFDYWGQGTLVTVSS VL: DIQMTQSPSSLSASLGERVTITCKASQDINSYLSWYQQKPGKAPKLLIYRANRLVDGVPSRFSGSGSGQDFTLTISSLQPEDIATYYCLQYDELPPTFGGGTKVEIK | 1.17 |  |  | 
6 | 6A5-H3K2-IgG2 (antibody, V domains shown, humanized) VH: QVQLVQSGAEVKKPGSSVKLSCKASGYTFSSYWINWVKQAPGQGLEWIGNIYPSDSYTNYNQKFKDKATLTVDKSTSTAYMELSSLRSEDTAVYYCTRTWEFYYDSVFDYWGQGTTLTVSS VL: DIQMTQSPSSLSASLGERVTITCKASQDINSYLSWYQQKPGKAPKTLIYRANRLVDGVPSRFSGSGSGQDFTLTISSLQPEDIATYYCLQYDELPPTFGGGTKVEIK | 0.402 | 0.000825 | 2.05e+06 | 
7 | 6A5-H2K4-IgG2 (antibody, V domains shown, humanized) VH: QVQLVQSGAEVKKPGSSVKLSCKASGYTFSSYWINWVRQAPGQGLEWIGNIYPSDSYTNYNQKFKDRATLTVDKSTSTAYMELSSLRSEDTAVYYCTRTWEFYYDSVFDYWGQGTLVTVSS VL: DIQMTQSPSSLSASLGERVTITCKASQDINSYLSWFQQKPGKAPKTLIYRANRLVDGVPSRFSGSGSGQDYTLTISSLQPEDIATYYCLQYDELPPTFGGGTKLEIK | 0.26 | 0.000581 | 2.24e+06 | 
8 | 6A5-H2K1-IgG2 (antibody, V domains shown, humanized) VH: QVQLVQSGAEVKKPGSSVKLSCKASGYTFSSYWINWVRQAPGQGLEWIGNIYPSDSYTNYNQKFKDRATLTVDKSTSTAYMELSSLRSEDTAVYYCTRTWEFYYDSVFDYWGQGTLVTVSS VL: DIQMTQSPSSLSASLGERVTITCKASQDINSYLSWYQQKPGKAPKLLIYRANRLVDGVPSRFSGSGSGQDFTLTISSLQPEDIATYYCLQYDELPPTFGGGTKVEIK | 2.32 | 0.00155 | 668000 | 
9 | 6A5-H3K3-IgG2 (antibody, V domains shown, humanized) VH: QVQLVQSGAEVKKPGSSVKLSCKASGYTFSSYWINWVKQAPGQGLEWIGNIYPSDSYTNYNQKFKDKATLTVDKSTSTAYMELSSLRSEDTAVYYCTRTWEFYYDSVFDYWGQGTTLTVSS VL: DIQMTQSPSSLSASLGERVTITCKASQDINSYLSWFQQKPGKAPKTLIYRANRLVDGVPSRFSGSGSGQDFTLTISSLQPEDIATYYCLQYDELPPTFGGGTKVEIK | 0.252 | 0.000538 | 2.14e+06 | 
10 | 6A5-H3K1-IgG2 (antibody, V domains shown, humanized) VH: QVQLVQSGAEVKKPGSSVKLSCKASGYTFSSYWINWVKQAPGQGLEWIGNIYPSDSYTNYNQKFKDKATLTVDKSTSTAYMELSSLRSEDTAVYYCTRTWEFYYDSVFDYWGQGTTLTVSS VL: DIQMTQSPSSLSASLGERVTITCKASQDINSYLSWYQQKPGKAPKLLIYRANRLVDGVPSRFSGSGSGQDFTLTISSLQPEDIATYYCLQYDELPPTFGGGTKVEIK | 2.78 | 0.00181 | 650000 | 
11 | 6A5-H1K3-IgG2 (antibody, V domains shown, humanized) VH: QVQLVQSGAEVKKPGSSVKLSCKASGYTFSSYWINWVRQAPGQGLEWMGNIYPSDSYTNYNQKFKDRVTLTVDKSTSTAYMELSSLRSEDTAVYYCTRTWEFYYDSVFDYWGQGTLVTVSS VL: DIQMTQSPSSLSASLGERVTITCKASQDINSYLSWFQQKPGKAPKTLIYRANRLVDGVPSRFSGSGSGQDFTLTISSLQPEDIATYYCLQYDELPPTFGGGTKVEIK | 0.214 | 0.000475 | 2.22e+06 | 
12 | 6A5-H1K2-IgG2 (antibody, V domains shown, humanized) VH: QVQLVQSGAEVKKPGSSVKLSCKASGYTFSSYWINWVRQAPGQGLEWMGNIYPSDSYTNYNQKFKDRVTLTVDKSTSTAYMELSSLRSEDTAVYYCTRTWEFYYDSVFDYWGQGTLVTVSS VL: DIQMTQSPSSLSASLGERVTITCKASQDINSYLSWYQQKPGKAPKTLIYRANRLVDGVPSRFSGSGSGQDFTLTISSLQPEDIATYYCLQYDELPPTFGGGTKVEIK | 0.278 | 0.000662 | 2.38e+06 | 
13 | 6A5-H2K3-IgG2 (antibody, V domains shown, humanized) VH: QVQLVQSGAEVKKPGSSVKLSCKASGYTFSSYWINWVRQAPGQGLEWIGNIYPSDSYTNYNQKFKDRATLTVDKSTSTAYMELSSLRSEDTAVYYCTRTWEFYYDSVFDYWGQGTLVTVSS VL: DIQMTQSPSSLSASLGERVTITCKASQDINSYLSWFQQKPGKAPKTLIYRANRLVDGVPSRFSGSGSGQDFTLTISSLQPEDIATYYCLQYDELPPTFGGGTKVEIK | 0.221 | 0.000504 | 2.28e+06 | 
14 | 6A5-H1K4-IgG2 (antibody, V domains shown, humanized) VH: QVQLVQSGAEVKKPGSSVKLSCKASGYTFSSYWINWVRQAPGQGLEWMGNIYPSDSYTNYNQKFKDRVTLTVDKSTSTAYMELSSLRSEDTAVYYCTRTWEFYYDSVFDYWGQGTLVTVSS VL: DIQMTQSPSSLSASLGERVTITCKASQDINSYLSWFQQKPGKAPKTLIYRANRLVDGVPSRFSGSGSGQDYTLTISSLQPEDIATYYCLQYDELPPTFGGGTKLEIK | 0.321 | 0.000693 | 2.16e+06 | 
15 | 6A5-H3K4-IgG2 (antibody, V domains shown, humanized) VH: QVQLVQSGAEVKKPGSSVKLSCKASGYTFSSYWINWVKQAPGQGLEWIGNIYPSDSYTNYNQKFKDKATLTVDKSTSTAYMELSSLRSEDTAVYYCTRTWEFYYDSVFDYWGQGTTLTVSS VL: DIQMTQSPSSLSASLGERVTITCKASQDINSYLSWFQQKPGKAPKTLIYRANRLVDGVPSRFSGSGSGQDYTLTISSLQPEDIATYYCLQYDELPPTFGGGTKLEIK | 0.4 | 0.000747 | 1.87e+06 | 
